# In patent US20250205324A1, “ANTIGENIC PEPTIDES FOR PREVENTION AND TREATMENT OF CANCER” (ENTEROME S.A., priority 2022, published 2025):
# Target: T1, HLA-A*0201 molecule expressed on human T2 cells (human)
# T1 construct: surface HLA-A2 detected with anti-HLA-A2-PE (clone REA517); also called HLA-A2
# Experiment: T2 cell HLA-A*0201 binding assay, anti-HLA-A2-PE flow cytometry
# Method: T2 cells (5·10⁴ cells per well) are incubated with decreasing concentrations of peptides from 100 μM to 0.1 μM (4 points: 100 μM, 10 μM, 1 μM, 0.1 μM) in serum-free medium (TexMacs) supplemented with 100 ng/μl of 2 Microglobulin at 37° C. for 16 hours. Cells are then washed two times and marked with the anti-HLA-A2 antibody coupled to PE (clone REA517, Miltenyi).
# For each peptide concentration, the geometric mean of the labelling associated with the peptide of interest is subtracted from background noise and reported as a percentage of the geometric mean of the HLA-A*0202 labelling obtained for the reference peptide HIV pol 589-597 at a concentration of 100 μM.
Binder,concentration of peptide that induces 20% of HLA-A2 expression,"in vitro binding affinity (relative affinity, normalized against HIV-pol)",mean relative fluorescence intensity at 0.1 µM peptide,mean relative fluorescence intensity at 1 µM peptide,mean relative fluorescence intensity at 10 µM peptide,mean relative fluorescence intensity at 100 µM peptide
ALYDVRTIL (also called ENT168-H) [UBE2C-H1],15 µM,8.8 ratio to HIV pol reference peptide,3.8 % of HIV pol reference peptide,-0.2 % of HIV pol reference peptide,6.8 % of HIV pol reference peptide,134 % of HIV pol reference peptide
KVWSDVTPL [MMP11-H1],0.65 µM,0.6 ratio to HIV pol reference peptide,–,24.9 % of HIV pol reference peptide,72.7 % of HIV pol reference peptide,82.5 % of HIV pol reference peptide
AINPELLQL (also called ENT207-H) [KIF2C-H1],22.6 µM,31.1 ratio to HIV pol reference peptide,0 % of HIV pol reference peptide,0.4 % of HIV pol reference peptide,9.5 % of HIV pol reference peptide,64.9 % of HIV pol reference peptide
VMNPELLLL (also called ENT207_B3) [KIF2C-B12],0.258 µM,1.1 ratio to HIV pol reference peptide,9.8 % of HIV pol reference peptide,41.4 % of HIV pol reference peptide,84.7 % of HIV pol reference peptide,67.7 % of HIV pol reference peptide
IVWSDVTYV (also called ENT187_B1) [MMP11-B1],0.08 µM,0.07 ratio to HIV pol reference peptide,19.8 % of HIV pol reference peptide,73.3 % of HIV pol reference peptide,97.1 % of HIV pol reference peptide,80.2 % of HIV pol reference peptide
LILDTVHSL (also called ENT174_B1) [ANKRD30A-B2],1.13 µM,1.3 ratio to HIV pol reference peptide,1.7 % of HIV pol reference peptide,12.4 % of HIV pol reference peptide,72 % of HIV pol reference peptide,90.8 % of HIV pol reference peptide
YLYDVRTAL (also called ENT168_B2) [UBE2C-B11],0.87 µM,0.7 ratio to HIV pol reference peptide,6.6 % of HIV pol reference peptide,22.2 % of HIV pol reference peptide,68.4 % of HIV pol reference peptide,87.5 % of HIV pol reference peptide
SLPDRILDA (also called ENT204-H) [CDC20-H1],–,6.3 ratio to HIV pol reference peptide,–,–,–,–
KILDTVHSC [ANKRD30A-H2],25.3 µM,29.9 ratio to HIV pol reference peptide,1.2 % of HIV pol reference peptide,1.8 % of HIV pol reference peptide,8.7 % of HIV pol reference peptide,52.3 % of HIV pol reference peptide
ALYDVRTILL (also called UBEC2-H11; ENT168-HL) [UBE2C-H11],14.9 µM,8.7 ratio to HIV pol reference peptide,4.2 % of HIV pol reference peptide,-2.3 % of HIV pol reference peptide,8.9 % of HIV pol reference peptide,135 % of HIV pol reference peptide
YLILEYATV (also called ENT199_B1) [AURKA-B1],1.16 µM,–,–,–,–,–
ILLSIQSLL [UBE2C-H2],3.27 µM,3.5 ratio to HIV pol reference peptide,2.1 % of HIV pol reference peptide,8.5 % of HIV pol reference peptide,32.7 % of HIV pol reference peptide,–
FLYDVRTYL (also called ENT168_B1; ENT_168-B1) [UBE2C-B1],–,3.1 ratio to HIV pol reference peptide,–,–,–,–
SLPDRILTV (also called ENT204_B1; ENT_204-B1) [CDC20-B1],–,0.6 ratio to HIV pol reference peptide,–,–,–,–
ALNPELLAL (also called ENT207_B1; ENT_207-B1) [KIF2C-B1],–,1.6 ratio to HIV pol reference peptide,–,–,–,–
SLDQKLFQL [ANKRD30A-H3],0.32 µM,0.4 ratio to HIV pol reference peptide,5.9 % of HIV pol reference peptide,41.9 % of HIV pol reference peptide,99.1 % of HIV pol reference peptide,97.1 % of HIV pol reference peptide

Binder,concentration of peptide that induces 20% of HLA-A2 expression,"in vitro binding affinity (relative affinity, normalized against HIV-pol)",mean relative fluorescence intensity at 0.1 µM peptide,mean relative fluorescence intensity at 1 µM peptide,mean relative fluorescence intensity at 10 µM peptide,mean relative fluorescence intensity at 100 µM peptide
AVYSEILSV (also called ENT169-H) [ANKRD30A-H1],0.65 µM,–,–,–,–,–
ALYSEILTV (also called ENT169_B1; ENT_169-B1) [ANKRD30A-B1],0.05 µM,0.04 ratio to HIV pol reference peptide,33.3 % of HIV pol reference peptide,77.2 % of HIV pol reference peptide,93.7 % of HIV pol reference peptide,88.2 % of HIV pol reference peptide
LVIGIILAV (also called ENT176-H) [CDH17-H1],14.1 µM,14.9 ratio to HIV pol reference peptide,0.5 % of HIV pol reference peptide,3.7 % of HIV pol reference peptide,17.6 % of HIV pol reference peptide,–
RLQQELMTL [UBE2C-H3],1.06 µM,1.1 ratio to HIV pol reference peptide,1.3 % of HIV pol reference peptide,12.3 % of HIV pol reference peptide,71.5 % of HIV pol reference peptide,82.4 % of HIV pol reference peptide
KIIGIILAV (also called ENT176_B1; ENT_176-B1) [CDH17-B1],0.2 µM,–,–,–,–,–
ALIFGQLLL (also called ENT205_B1; ENT_205-B1) [TOP2A-B2],1.79 µM,2.9 ratio to HIV pol reference peptide,3.4 % of HIV pol reference peptide,5.5 % of HIV pol reference peptide,73.6 % of HIV pol reference peptide,146 % of HIV pol reference peptide
ALIFGQLLT (also called ENT205-H) [TOP2A-H2],–,–,5.1 % of HIV pol reference peptide,0.3 % of HIV pol reference peptide,3.2 % of HIV pol reference peptide,0 % of HIV pol reference peptide
SLLSIQSYV (also called ENT172_B1) [UBE2C-B2],0.22 µM,0.2 ratio to HIV pol reference peptide,14.2 % of HIV pol reference peptide,52 % of HIV pol reference peptide,92 % of HIV pol reference peptide,–
AQIGIVAVV [OR51E2-H1],5.68 µM,6.2 ratio to HIV pol reference peptide,0 % of HIV pol reference peptide,4 % of HIV pol reference peptide,32 % of HIV pol reference peptide,–
QMNPELLTL (also called ENT207_B2) [KIF2C-B11],–,3.9 ratio to HIV pol reference peptide,–,–,–,–
YLILEYAPL [AURKA-H1],12.2 µM,22.8 ratio to HIV pol reference peptide,0 % of HIV pol reference peptide,0 % of HIV pol reference peptide,13.1 % of HIV pol reference peptide,164 % of HIV pol reference peptide
AVIGIVAAV (also called ENT190_B1) [OR51E2-B1],0.7 µM,0.8 ratio to HIV pol reference peptide,3.5 % of HIV pol reference peptide,25.4 % of HIV pol reference peptide,59.3 % of HIV pol reference peptide,–
VLNPELLML (also called ENT207_B4) [KIF2C-B13],0.189 µM,0.8 ratio to HIV pol reference peptide,10.5 % of HIV pol reference peptide,42.1 % of HIV pol reference peptide,45.3 % of HIV pol reference peptide,50.3 % of HIV pol reference peptide
YLQQELMNL (also called ENT178_B1) [UBE2C-B3],0.14 µM,–,–,–,–,–
TLDQKLFMV (also called ENT180_B1) [ANKRD30A-B3],0.14 µM,0.2 ratio to HIV pol reference peptide,18.8 % of HIV pol reference peptide,67.5 % of HIV pol reference peptide,120 % of HIV pol reference peptide,112 % of HIV pol reference peptide
